To fix the notation:
B1: B12.1 IgG (antibody, V domains shown)
VH: QVNLRESGGGVVQPGRSLRLSCAASGFTFSSYALHWVRQTPGKGLEWVALISYDGSNKYYADSVKGRFTISRDNSKNMLYLQMNSLRAEDTAVYYCAKDRSHYGDYVGYLDYWGQGTLVTVSS
VL: AYVLTQPPSVSVAPGKTAAITCEGNNVGNKNVHWYQQRPGQAPVLVVHDDSDRPSGIPERFSGSNSGNTATLTINRVEAGDEADYYCQVWDSSSAQWVFGGGTKLTVLG
B2: 2B23 IgG (antibody, V domains shown)
VH: EVQLLESGGGLVQPGGSLRLSCAASGFTFSNYPMSWVRQAPGKGLAWVSSLTASGDNTFYADSVKGRFTISRDNSNNTLYLQMHSLRAEDTAVYYCAKALVGRYDISTGYYRPVMDSWGQGTLVTVSS
VL: DIQMTQSPPSLSASVGDRVTITCRTSQGFTSALAWYQQKPGEPPKLLIYDASKLESGVPSRFSGSGSGTNFALTISSLQPEDFATYFCQQSNSYPLTFGGGTKVEIKR
B3: B11E8 IgG (antibody, V domains shown)
VH: EVQLVQSGGGVVQPGRSLRLSCAASGFIFRTYGMHWVRQAPGKGLEWVAFVSSDGNNKFYSDSVKGRFTISRDNAKNTLYLQMNSLETEDTAMYYCAKDRYPIDCSGGSCFSYGMDVWGQGTTVTVSS
VL: EIVLTQSPATLSVSPGERATLSCRASQSVSKFLAWYQQKRGQAPRLLIYGASTRATGIPARFSGSGSGTEFALTISSLQSEDFADYYCQQYDNWPITFGQGTRLEIKR
B4: 1B10.1 IgG (antibody, V domains shown)
VH: QVQLVESGGGVVQPGRSLRLSCAASGFTFSHYGMHWVRQSPGKGLEWVAVIWYDGRNPYYAASVKGRFTISRDNDKNTLYLQMNSLRAEDTAVYYCVKDLTRFHDTTFGVFEMWGPGTTVTVSS
VL: EIVLTQSPSFVSASVGDRVTITCRASQGISSWLAWYQQKPGKAPKLLIYAASSLQSGVPSRFSGSGSGTEFTLTISSLQPDDFATYYCQQYSSLYTFGQGTKVDIKR
B5: 2B25.1 IgG (antibody, V domains shown)
VH: QVQLQESGPGLVKPSQTLSLSCSVSGASITSGTFYWSWIRQHPGKDLEWIGYIYYSGTTYYNPSLKSRVTLSVDTSKNQFSLKVTSLTAADTAVYHCARGVPIYDSSGTYRGTYFDYWGQGTLVTVSS
VL: ESVLTQPPSVSAAPGQKVTISCSGSSSNIGNNYVSWYQQLPGTAPKLLIYDNNRRPSGIPDRFSGSKSGTSATLGITGLQTGDEADYYCGTWDSSLSEVVFGGGTKVTVLG
B6: 1B18 IgG (antibody, V domains shown)
VH: EVQLVQSGGGLVQPGGSRRLSCAASGFYFNAYWMTWVRQAPGKGLEWVANINLDGTEIYYLDSVKGRFTVSRDNVKNSVFLQMSSLRVEDTAVYFCARLEWGGRNGWVSPWGQGTLVTVSS
VL: DVVMTQSPSSVSASVGDRVTITCRASQSISSYLNWYQQRPGKAPKLLIFAASSLQSAVPSRFSGSGSGTDFTLTISSLQPEDFATYYCQQSYSTPPTFGQGTKVEIKR
B7: 2B24 scFv (yeast displayed) (scFv)
scFv: QVQLVESGGGVVQPGRSLRLSCAASGLTFSVYGMHWVRQAPGKGLEWVAVISHTGSEEYYADSVKGRFSISRDNSNNTLFLQMNSLRPEDTAVYYCVKDGPMAAIPFYYFDFWGQGTLVTVSSGGGGSGGGGSGGGGSQSVVTQPPSVSAAPGQKVTISCSGSSSNIGNNYVSWYQQLPGTAPKLLIYDNNKRPSGIPDRFSGSKSGTSATLGITGLQTGDEADYYCGTWDSSLSAGVFGGGTKLTVLG
B8: 1B18 scFv (yeast displayed) (scFv)
scFv: EVQLVQSGGGLVQPGGSRRLSCAASGFYFNAYWMTWVRQAPGKGLEWVANINLDGTEIYYLDSVKGRFTVSRDNVKNSVFLQMSSLRVEDTAVYFCARLEWGGRNGWVSPWGQGTLVTVSSGGGGSGGGGSGGGGSDVVMTQSPSSVSASVGDRVTITCRASQSISSYLNWYQQRPGKAPKLLIFAASSLQSAVPSRFSGSGSGTDFTLTISSLQPEDFATYYCQQSYSTPPTFGQGTKVEIKR
B9: 1B10 scFv (yeast displayed) (scFv)
scFv: QVQLVESGGGVVQPGRSLRLSCAASGFTFSHYGMHWVRQSPGKGLEWVAVIWYDGRNPYYAASVKGRFTISRDNDKNTLYLQMNSLRAEDTAVYYCVKDLTRFHDTTFGVFEMWGPGTTVTVSSGGGGSGGGGSGGGGSEIVLTQSPSSLSASVGDRITITCRASQSISSWLAWYQQKPGKAPMVLIYKASSLENGVPSRFSGSGSGTEFTLTISSLQPDDFATYYCQQYSTYSRTFGQGTKVEIKR
B10: 2B23 scFv (yeast displayed) (scFv)
scFv: EVQLLESGGGLVQPGGSLRLSCAASGFTFSNYPMSWVRQAPGKGLAWVSSLTASGDNTFYADSVKGRFTISRDNSNNTLYLQMHSLRAEDTAVYYCAKALVGRYDISTGYYRPVMDSWGQGTLVTVSSGGGGSGGGGSGGGGSDIQMTQSPPSLSASVGDRVTITCRTSQGFTSALAWYQQKPGEPPKLLIYDASKLESGVPSRFSGSGSGTNFALTISSLQPEDFATYFCQQSNSYPLTFGGGTKVEIKR
B11: 2B25 scFv (yeast displayed) (scFv)
scFv: QVQLQESGPGLVKPSQTLSLSCSVSGASITSGTFYWSWIRQHPGKDLEWIGYIYYSGTTYYNPSLKSRVTLSVDTSKNQFSLKVTSLTAADTAVYHCARGVPIYDSSGTYRGTYFDYWGQGTLVTVSSGGGGSGGGGSGGGGSQPGLTQPPSASGTPGQRVTISCSGSSSNVGSNTVNWYQQLPGTAPKLLIYRNDQRPSGVPDRFSGSKSGASASLAISGLRSEDEADYYCAAWDDSLNGLLFGGGTQLTVLG
B12: 2B27 scFv (yeast displayed) (scFv)
scFv: EVQLQESGPGLVKPSETLSVTCAVSGGSISSSNYSWAWIRQPPGKGLEWIGTMYYSGSTHYHPSLKSRVTISVDTSKSQLSLKLSSVTAADTAVYYCARRRLLGPSPYYFDYWGQGTLVTVSSGGGGSGGGGSGGGGSQSVVTQPPSVSGAPGQRVTISCSGSSSNIGAGYDVHWYQQLPGTAPKLLIYGNNNRPSGVPDRFSGSKSGTSASLAITGLQAEDEADYYCQSYDSSLSAYVFGTGTKLTVLG
B13: 1B11 scFv (yeast displayed) (scFv)
scFv: QVQLLQSAGGVVQPGRSLRLSCAASGFIFRTYGMHWVRQAPGKGLEWVAFVSSDGNNKFYSDSVKGRFTIPRDNAKNTLYLQMNSLETEDTAVYYCAKDRYPIDCSGGSCFSYGMDVWGQGTTVTVSSGGGGSGGGGSGGGGSDIVMTQSPSTLSASVGDRVTVTCRASQSINSWLAWYQQKPGKAPKLLIYEASSLESGVPSRFSGSGSGTEFTLTISSLQPDDFATYYCQQYDSYWLTFGGGTKVEIK

One assay deals with Botulinum neurotoxin type B, subtype B3 (BoNT/B3) (Clostridium botulinum). As to the kind of experiment: KinExA flow fluorimetry; IgG in solution. A general note: A kinetic exclusion assay measures how much of one partner remains free in solution.
Turning to B1, the Kd amounted to 0.0462 nM. In other words, the picomolar range.

Molecule B2 displayed a Kd of 0.048 nM.

In turn, B3 yielded a Kd of 0.0156 nM.

Take B4: the Kd turned out to be 1.2 nM.

B5: the Kd turned out to be 0.0177 nM.

The molecule B6 returned a Kd of 0.972 nM.

The target in a further assay is Botulinum neurotoxin type B, subtype B4 (BoNT/B4) (Clostridium botulinum). The assay can be described thus: KinExA flow fluorimetry; IgG in solution.
For B1, the Kd amounted to 0.625 nM.

On to B2, for which the Kd is 0.0552 nM.

As to B4, the Kd turned out to be 0.00047 nM.

B5 displayed a Kd of 0.03 nM.

Take B6: the Kd was determined as 0.021 nM.

In a further assay the target is Botulinum neurotoxin type B, subtype B3 (BoNT/B3) (Clostridium botulinum). The assay can be described thus: flow cytometry; yeast-displayed scFv, soluble toxin. On the technique in general: In flow cytometry, cells or beads pass a laser one at a time.
With B7, the Kd was 4 nM.

B8 displayed a Kd of 3.04 nM.

In turn, B9 yielded a Kd of more than 5000 nM.

Molecule B10 returned a Kd of 0.25 nM.

The molecule B11 showed a Kd of 0.93 nM. Against the preceding molecule, the Kd is about 3.7-fold higher.

In turn, B12 showed a dissociation constant (Kd) of 2.32 nM. This Kd lies about 2.5-fold higher than the previous one.

On to B13, for which the Kd was determined as 4.43 nM.

A further assay has as its target Botulinum neurotoxin type B, subtype B4 (BoNT/B4) (Clostridium botulinum). Described as above.
The molecule B7 yielded a Kd of 0.72 nM.

For B8, the Kd came to 1.7 nM.

B9: the Kd stood at 4.69 nM.

The molecule B10 showed a Kd of 0.19 nM. Against the preceding molecule, the Kd is about 25-fold lower.

Regarding B11, the Kd was 0.68 nM.

As to B12, the Kd is 0.77 nM. This Kd and that of the molecule before are within 1.5-fold of each other.

A word on the Kd: it is the concentration at which binding is half-saturated. Read a low Kd as tighter binding.

Source of the values: patent US20110200615A1.
